Experimental data from article PMC8971466.

Assay: SEC; SE-HPLC, TSK-gel SuperSW3000; 0.1 M phosphate, 0.1 M potassium sulfate pH 6.7; scFv at 0.1 mg/mL, 25 °C, 0.3 mL/min; monomer and dimer peaks told by molecular weight standards, percentages from peak areas

With “L1, anti-VEGF scFv derived from bevacizumab with non-repetitive linker” the Monomer/dimer ratio (monomer %) was 95.7%.
